Assay results: patent US20070298494A1 (KANSAS STATE UNIVERSITY RESEARCH FOUNDATION, published 2007)

Molecular target: the molecule itself
Assay: BS3 chemical cross-linking in solution, SDS-PAGE, silver stain; association of the peptide with itself
Protocol: In order to visualize the oligomeric state of the peptide in solution a chemical cross-linking protocol was developed. Calculated amounts of each peptide were weighted out and dissolved in 1 mL of distilled water to make 1 mM stock solutions. A 100 mM stock solution of the chemical crosslinking reagent Bis[Sulfosuccinimidyl]suberate, BS³, (Pierce Chemical Co., Rockford, Ill.) was prepared in dimethyl sulfoxide (DMSO). In typical reactions, 5-30 μL of 1.0 mM stock solution of peptide are added to 64-94 μL of 10 mM HEPES buffer, pH 8.1 to give a range of concentrations starting at 50 μM rising up to 300 μM. Sample were allowed to sit at room temperature for 15 minutes. 1-6 μL of 100 mM BS³ was then added to the previously prepared peptide such that the crosslinking reagent was present in 20-fold excess. The final volume for each reaction was 100 μL. After reacting for 30 minutes, the reaction was stopped with the addition of 10 μL 1.0 N HCl. Each sample was then vacuum dried. Later dry samples were re-dissolved in 60 μL of distilled water along with 60 μL of a 2×-tricine SDS sample buffer (Novex, San Diego). All samples were then boiled at 100° C. for 5 minutes. 5 μL aliquots of each SDS boiled sample was then loaded into separate lanes of pre-cast, 1.0 mm, 10 well, 10-20% tricine gels (Novex, San Diego). Pre-made Novex tricine-SDS buffer was used in the electrophoresis. The reference well contained 1 μL of MultiMark® multi-colored molecular weight standard (Novex, San Diego). The electrophoresis was carried out at a constant 110 Volts for 90 minutes. The gel was then fixed in 40% methanol in water and the cross-linked peptides visualized using silver staining (SilverXpress® silver staining kit, Invitrogen, Carlsbad, Calif.).

B1: NK4A'Wa' (peptide)
peptide: KKKKAARVGLGITTVWVTTIGLGVRAA
notes: Synthetic peptide; tested for association with itself in solution by BS3 cross-linking and SDS-PAGE
binding result: no binding

B2: C-K4-M2GlyR (peptide)
peptide: PARVGLGITTVLTMTTQSSGSRAKKKK
notes: Synthetic peptide; tested for association with itself in solution by BS3 cross-linking and SDS-PAGE; also called CK4ALB
binding result: binds

B3: N-K4-M2GlyR (peptide)
peptide: KKKKPARVGLGITTVLTMTTQSSGSRA
notes: Synthetic peptide; tested for association with itself in solution by BS3 cross-linking and SDS-PAGE; also called NK4ALB
binding result: binds
